Paper PMC9727766 (bioRxiv, 2022)

Assays:
[1] = molecular target: SARS-CoV-2 S protein, C-terminally truncated, Omicron BA.1, on 293T cells (SARS-CoV-2 Omicron BA.1 (B.1.1.529), …, strain); experiment: flow cytometry on cells
[2] = molecular target: SARS-CoV-2 S protein, C-terminally truncated, Omicron BA.4/BA.5, on 293T cells (SARS-CoV-2 Omicron BA.4/BA.5, strain); experiment: flow cytometry on cells

B1: fp.006 monoclonal antibody (IgG) (antibody, V domains shown)
VH: EVQLVESGGGVVQPGGSLRLSCAASGFNFNNYALHWVRQAPGKGLEWVAIISYEARNKKYGVSVMGRFSISRDNSKSIMYLEMNSLRVEDTGVYYCARDLFLSDYDRSGYDPTRGGFDHWGQGTLVTVSS
VL: EIVMTQSPATLSVSPGERATLSCRASQSVSSSLAWYQHRFGQAPRLLISGASTRATGIPGRFSGSGSGTEFTLTISSLQSEDVAVYYCQQYGDWPLVTFGGGTKVEIK
fold increase of binding with soluble ACE2 [1]: 5.3 fold
fold increase of binding with soluble ACE2 [2]: 8.2 fold
